Measured values taken from PMC9583936 (Biochemistry, 2022).
Read-outs that look alike come from different tables or passages of the source. *1 amine or outer side, *2 acyl side, *3 side chain or, on linkers, in order; H or OH if unused. Where no end group is shown, it is not given here. [ ]: non-standard residue; d: D form. Leu(4-F) = γ-19F-leucine (4-fluoro-leucine), CC(C)(F)C[C@H](N[*:1])C(=O)[*:2]; Phe(4-F) = N[C@@H](Cc1ccc(F)cc1)C(=O)O

Tests used:
[1] = molecular target: the molecule itself; test: 19F solid-state NMR CODEX
[2] = molecular target: the molecule itself; test: 19F solid-state NMR CODEX; remark: listed apart in the source

| Protein | stoichiometry N [1] | stoichiometry N [2] |
| --- | --- | --- |
| ETGTLIVNSVLLFLA[Phe(4-F)]VVFLLVTLAILTALR-NH2 (N-terminus assumed; SMILES CC[C@H](C)[C@H](NC(=O)[C@H](C)NC(=O)[C@H](CC(C)C)NC(=O)[C@@H](NC(=O)[C@@H](NC(=O)[C@H](CC(C)C)NC(=O)[C@H](CC(C)C)NC(=O)[C@H](Cc1ccccc1)NC(=O)[C@@H](NC(=O)[C@@H](NC(=O)[C@H](Cc1ccc(F)cc1)NC(=O)[C@H](C)NC(=O)[C@H](CC(C)C)NC(=O)[C@H](Cc1ccccc1)NC(=O)[C@H](CC(C)C)NC(=O)[C@H](CC(C)C)NC(=O)[C@@H](NC(=O)[C@H](CO)NC(=O)[C@H](CC(N)=O)NC(=O)[C@@H](NC(=O)[C@@H](NC(=O)[C@H](CC(C)C)NC(=O)[C@@H](NC(=O)CNC(=O)[C@@H](NC(=O)[C@@H](N)CCC(=O)O)[C@@H](C)O)[C@@H](C)O)[C@@H](C)CC)C(C)C)C(C)C)C(C)C)C(C)C)C(C)C)[C@@H](C)O)C(=O)N[C@@H](CC(C)C)C(=O)N[C@H](C(=O)N[C@@H](C)C(=O)N[C@@H](CC(C)C)C(=O)N[C@@H](CCCNC(=N)N)C(N)=O)[C@@H](C)O) [4-19F-Phe23 labeled ETM (transmembrane domain of the SARS-CoV-2 envelope protein, residues 8-38)] | 5 | – |
| Ac-ETGTLIVNSV[Leu(4-F)]LFLAFVVFLLVTLAILTALR-NH2 (SMILES CC[C@H](C)[C@H](NC(=O)[C@H](C)NC(=O)[C@H](CC(C)C)NC(=O)[C@@H](NC(=O)[C@@H](NC(=O)[C@H](CC(C)C)NC(=O)[C@H](CC(C)C)NC(=O)[C@H](Cc1ccccc1)NC(=O)[C@@H](NC(=O)[C@@H](NC(=O)[C@H](Cc1ccccc1)NC(=O)[C@H](C)NC(=O)[C@H](CC(C)C)NC(=O)[C@H](Cc1ccccc1)NC(=O)[C@H](CC(C)C)NC(=O)[C@H](CC(C)(C)F)NC(=O)[C@@H](NC(=O)[C@H](CO)NC(=O)[C@H](CC(N)=O)NC(=O)[C@@H](NC(=O)[C@@H](NC(=O)[C@H](CC(C)C)NC(=O)[C@@H](NC(=O)CNC(=O)[C@@H](NC(=O)[C@H](CCC(=O)O)NC(C)=O)[C@@H](C)O)[C@@H](C)O)[C@@H](C)CC)C(C)C)C(C)C)C(C)C)C(C)C)C(C)C)[C@@H](C)O)C(=O)N[C@@H](CC(C)C)C(=O)N[C@H](C(=O)N[C@@H](C)C(=O)N[C@@H](CC(C)C)C(=O)N[C@@H](CCCNC(=N)N)C(N)=O)[C@@H](C)O) [γ-19F-Leu18 labeled ETM (transmembrane domain of the SARS-CoV-2 envelope protein, residues 8-38)] | 5 | – |
| ETGTLIVNSVLL[Phe(4-F)]LAFVVFLLVTLAILTALR [4-19F-Phe20 labeled ETM (transmembrane domain of the SARS-CoV-2 envelope protein)] | – | 5 |
